Measurements from patent US20020115596A1 (MERK, published 2002).
Non-standard residues stand in square brackets, D forms with d. Primed or numbered codes have the meaning given here. PEG(2)″ = polyethylene glycol containing substituent with 2 ethyleneoxy subunits; Hyp = O=C(O)[C@@H]1C[C@@H](O)CN1; Chg = N[C@H](C(=O)O)C1CCCCC1; ΔPro = O=C(O)[C@@H]1C=CCN1

Target: free prostate specific antigen (PSA) (human, UniProt P07288 25-261)
Test: cell-based or functional assay

Binder | Time to 50% Substrate Cleavage by PSA (Min); the cell gives the percent cleaved at 3 hours
Ac-[Hyp][Chg]QSSSL-OH (SMILES CC(=O)N1C[C@H](O)C[C@H]1C(=O)N[C@H](C(=O)N[C@@H](CCC(N)=O)C(=O)N[C@@H](CO)C(=O)N[C@@H](CO)C(=O)N[C@@H](CO)C(=O)N[C@@H](CC(C)C)C(=O)O)C1CCCCC1) [Ac-(4-trans-L-Hyp)ChgQ-SSSL-acid] | 0 % cleaved at 3 hours
XASXQSX (N-terminal acetyl; 4-trans-L-Hyp (trans-4-hydroxy-L-proline) at position 1 (written X); Chg (cyclohexylglycine) at position 4 (written X); TIC (1,2,3,4-tetrahydro-3-isoquinoline carboxylic acid) at position 7 (written X); C-terminal free acid) [Ac-(4-trans-L-Hyp)ASChgQ-S(TIC)-acid] | 16 % cleaved at 3 hours

More lines, now with the values ahead:

Time to 50% Substrate Cleavage by PSA (Min); the cell gives the percent cleaved at 3 hours | Binder
28 % cleaved at 3 hours | Ac-[ΔPro]AS[Chg]QSL-OH (SMILES CC(=O)N1CC=C[C@H]1C(=O)N[C@@H](C)C(=O)N[C@@H](CO)C(=O)N[C@H](C(=O)N[C@@H](CCC(N)=O)C(=O)N[C@@H](CO)C(=O)N[C@@H](CC(C)C)C(=O)O)C1CCCCC1) [Ac-(Dehydro-Pro)-ASChgQ-SL-acid]
44 % cleaved at 3 hours | {PEG(2)″}-[Hyp]AS[Chg]QSL-OH [PEG(2)-(4-trans-L-Hyp)-ASChgQ-SL-acid]
